{"source": "IntAct's records for PubMed 22500027", "parents": {"B1": {"name": "BBSome complex member BBS4 (Homo sapiens), Q96RK4 (parent)", "chain": "MAEERVATRTQFPVSTESQKPRQKKAPEFPILEKQNWLIHLHYIRKDYEACKAVIKEQLQETQGLCEYAIYVQALIFRLEGNIQESLELFQTCAVLSPQSADNLKQVARSLFLLGKHKAAIEVYNEAAKLNQKDWEISHNLGVCYIYLKQFNKAQDQLHNALNLNRHDLTYIMLGKIHLLEGDLDKAIEVYKKAVEFSPENTELLTTLGLLYLQLGIYQKAFEHLGNALTYDPTNYKAILAAGSMMQTHGDFDVALTKYRVVACAVPESPPLWNNIGMCFFGKKKYVAAISCLKRANYLAPFDWKILYNLGLVHLTMQQYASAFHFLSAAINFQPKMGELYMLLAVALTNLEDIENAKRAYAEAVHLDKCNPLVNLNYAVLLYNQGEKKNALAQYQEMEKKVSLLKDNSSLEFDSEMVEMAQKLGAALQVGEALVWTKPVKDPKSKHQTTSTSKPASFQQPLGSNQALGQAMSSAAAYRTLPSGAGGTSQFTKPPSLPLEPEPAVESSPTETSEQIREK"}, "B2": {"name": "BBSome complex member BBS1 (Homo sapiens), Q8NFJ9 (parent)", "chain": "MAAASSSDSDACGAESNEANSKWLDAHYDPMANIHTFSACLALADLHGDGEYKLVVGDLGPGGQQPRLKVLKGPLVMTESPLPALPAAAATFLMEQHEPRTPALALASGPCVYVYKNLRPYFKFSLPQLPPNPLEQDLWNQAKEDRIDPLTLKEMLESIRETAEEPLSIQSLRFLQLELSEMEAFVNQHKSNSIKRQTVITTMTTLKKNLADEDAVSCLVLGTENKELLVLDPEAFTILAKMSLPSVPVFLEVSGQFDVEFRLAAACRNGNIYILRRDSKHPKYCIELSAQPVGLIRVHKVLVVGSTQDSLHGFTHKGKKLWTVQMPAAILTMNLLEQHSRGLQAVMAGLANGEVRIYRDKALLNVIHTPDAVTSLCFGRYGREDNTLIMTTRGGGLIIKILKRTAVFVEGGSEVGPPPAQAMKLNVPRKTRLYVDQTLREREAGTAMHRAFQTDLYLLRLRAARAYLQALESSLSPLSTTAREPLKLHAVVQGLGPTFKLTLHLQNTSTTRPVLGLLVCFLYNEALYSLPRAFFKVPLLVPGLNYPLETFVESLSNKGISDIIKVLVLREGQSAPLLSAHVNMPGSEGLAAA", "partner": "B1 chain"}}, "data": [{"variants_of": "B1", "conditions": "with pcm1_human PCM1, Q15154", "values": [{"variant": "R295P", "effect of a mutation on the interaction": "disrupting interaction"}, {"variant": "G277E", "effect of a mutation on the interaction": "disrupting interaction"}]}, {"variants_of": "B2", "conditions": "with bbs4_human BBS4, Q96RK4", "values": [{"variant": "M390R", "effect of a mutation on the interaction": "decreasing interaction"}]}]}
